The values below come from paper PMC11285730 (Open Biology, 2024).

In general, Kd refers to the concentration at which binding is half-saturated. The term koff denotes the first-order rate constant of dissociation. A high value points to fast dissociation. One may read the kon as a measure of how fast the partners come together.

Holding throughout (test): BLI
Holding throughout (conditions): both partners purified

Experiment [1] deals with T1, SARS-CoV-2 Omicron BA.1 RBD, biotin-tagged (SARS-CoV-2 Omicron BA.1, S371L | S375F | K/V417N | S477N | E484A | N501Y | Y505H, biotin).
T1 construct: source: Expi293, purified

The target in experiment [2] is T2, SARS-CoV-2 Beta RBD, biotin-tagged (SARS-CoV-2 Beta (B.1.351), E484K | N501Y, biotin).
T2 construct: source: Expi293, purified

The target of experiment [3] is T3, SARS-CoV-2 Omicron BA.4/5 RBD, biotin-tagged (SARS-CoV-2 Omicron BA.4/5, S371F | S375F | D405N | R408S | L452R | E484A | F486V | N501Y, biotin).
T3 construct: source: Expi293, purified

B1: A8 monomer (VHH)
VHH: QVQLVESGGGLVQAGGSLRLSCAASGGTFSTAAMGWFRQAPGEERECVASIGWRGVRTWYADSVKGRFTISRDNPQNTVYLQMNNLKSGDTAVYYCAASVGNYGLPWAHFEYDFWGQGIQVTVSS
For the molecule B1, the figures for the Kd in experiment [1], in experiment [2] and in experiment [3] were 15.7 nM, 0.889 nM and 8.1 nM, respectively. Also, the figures for the koff in experiment [1], in experiment [2] and in experiment [3] were 0.0053 s⁻¹, 0.000289 s⁻¹ and 0.00283 s⁻¹, respectively. The kon in experiment [1] was 343000 M⁻¹ s⁻¹; in experiment [2] it was 326000 M⁻¹ s⁻¹; in experiment [3], 349000 M⁻¹ s⁻¹.

B2: B5-5 monomer (VHH)
VHH: QVQLVESGGGLVQPGGSLRLSCAVFGSTLDNYSVGWFRQLPGKEREGLACFSRRYGAPYYADSAKDRFTISRDNAKNTVDLQLNGLKPEDTAVYYCATRSGPYCTTSVSDFDDWGRGTQVTVSS
For the molecule B2, in experiment [1], the Kd is 0.355 nM, the koff was 0.000204 s⁻¹ and the kon stood at 576000 M⁻¹ s⁻¹. In experiment [2], this molecule yielded a Kd of 0.0655 nM, a dissociation rate constant (koff) of 1.29e-05 s⁻¹ and a kon of 216000 M⁻¹ s⁻¹. In experiment [3], this molecule had a Kd of 0.684 nM, a koff of 0.000129 s⁻¹ and a kon of 190000 M⁻¹ s⁻¹.

B3: H6 monomer (VHH)
VHH: QVQLVESGGGLVQPGGSLTLSCVASESSLAPYRVAWFRQAPGKEREGVSCISRDAHPTSTYYTASVKGRFTMSRDNAKNTVYLQMNSLKPSDTAVYYCATDLGGYCSDSNYPRAWWGQGTQVTVSS
In the case of B3, in experiment [1], the Kd was 22.7 nM, the koff was determined as 0.00553 s⁻¹ and the kon was 245000 M⁻¹ s⁻¹. Further, in experiment [2], the affinity, expressed as Kd, was 0.677 nM; the off-rate constant (koff) came out at 0.000337 s⁻¹; the kon was determined as 498000 M⁻¹ s⁻¹. Moreover, in experiment [3], the Kd was 7.08 nM, the koff amounted to 0.00235 s⁻¹ and the kon is 333000 M⁻¹ s⁻¹.
